Measured values from patent US20220017573A1.

How the values were obtained:
ScuR/SarF system = experiment: cell-based or functional assay
[1] = biological target: ScuR-StrepTag (Streptococcus salivarius HSISS4); experiment: EMSA: Cy3 PsptA probe, constant ScuR-StrepTag, decreasing sBI7; peptide-dependent ternary complex

B1: sBI7 (peptide)
peptide: LPFWLILG
In the case of B1, the peptide concentration to which the PsptA, PslvX and PcomS luxAB reporters respond in WT background (ScuR/SarF system) is reported as < 1 nM and the lowest peptide concentration at which ScuR shifts the PsptA probe [1] is reported as 0.08 nM.
